Key:
[1] = target: bRSV F 391-2 DS-Cav1 (bovine respiratory syncytial virus, strain 391-2 | bacteriophage T4); experiment: SEC; after nickel and Strep-Tactin affinity columns and cleavage of the C-terminal affinity tags; SEC in PBS
[2] = target: bRSV F 391-2 DS-Cav1 (bovine respiratory syncytial virus, strain 391-2 | bacteriophage T4); experiment: negative stain EM; about 0.01 mg/ml, 10 mM HEPES pH 7.0, 150 mM KCl, 0.75% uranyl formate; reference-free 2D class averaging
[3] = target: bRSV F ATue51908 DS-Cav1 (bovine respiratory syncytial virus, strain ATue51908 | bacteriophage T4); experiment: SEC; after nickel and Strep-Tactin affinity columns and cleavage of the C-terminal affinity tags; SEC in PBS
[4] = target: bRSV F ATue51908 DS-Cav1 (bovine respiratory syncytial virus, strain ATue51908 | bacteriophage T4); experiment: negative stain EM; about 0.01 mg/ml, 10 mM HEPES pH 7.0, 150 mM KCl, 0.75% uranyl formate; reference-free 2D class averaging
[5] = target: bRSV F DS2-v1 (391-2 sc9 DS-Cav1 Q98C Q361C) (bovine respiratory syncytial virus, strain 391-2 | bacteriophage T4); experiment: SEC; after nickel and Strep-Tactin affinity columns and cleavage of the C-terminal affinity tags; SEC in PBS
[6] = target: bRSV F DS2-v1 (391-2 sc9 DS-Cav1 Q98C Q361C) (bovine respiratory syncytial virus, strain 391-2 | bacteriophage T4); experiment: negative stain EM; about 0.01 mg/ml, 10 mM HEPES pH 7.0, 150 mM KCl, 0.75% uranyl formate; reference-free 2D class averaging
[7] = target: bRSV F DS2-v33 (391-2 sc9-10 DS-Cav1 Q98C Q361C) (bovine respiratory syncytial virus, strain 391-2 | bacteriophage T4); experiment: SEC; after nickel and Strep-Tactin affinity columns and cleavage of the C-terminal affinity tags; SEC in PBS
[8] = target: bRSV F DS2-v33 (391-2 sc9-10 DS-Cav1 Q98C Q361C) (bovine respiratory syncytial virus, strain 391-2 | bacteriophage T4); experiment: negative stain EM; about 0.01 mg/ml, 10 mM HEPES pH 7.0, 150 mM KCl, 0.75% uranyl formate; reference-free 2D class averaging
[9] = target: bRSV F DS2-v35 (ATue51908 sc9-10 DS-Cav1 A149C Y458C) (bovine respiratory syncytial virus, strain ATue51908 | bacteriophage T4); experiment: SEC; after nickel and Strep-Tactin affinity columns and cleavage of the C-terminal affinity tags; SEC in PBS
[10] = target: bRSV F DS2-v35 (ATue51908 sc9-10 DS-Cav1 A149C Y458C) (bovine respiratory syncytial virus, strain ATue51908 | bacteriophage T4); experiment: negative stain EM; about 0.01 mg/ml, 10 mM HEPES pH 7.0, 150 mM KCl, 0.75% uranyl formate; reference-free 2D class averaging
[11] = target: bRSV F RB94 DS-Cav1 (bovine respiratory syncytial virus, strain RB94 | bacteriophage T4); experiment: SEC; after nickel and Strep-Tactin affinity columns and cleavage of the C-terminal affinity tags; SEC in PBS
[12] = target: bRSV F RB94 DS-Cav1 (bovine respiratory syncytial virus, strain RB94 | bacteriophage T4); experiment: negative stain EM; about 0.01 mg/ml, 10 mM HEPES pH 7.0, 150 mM KCl, 0.75% uranyl formate; reference-free 2D class averaging

Question: With “bRSV F 391-2 DS-Cav1 (domain or fragment)” as the substance, how does the stoichiometry N [1] read?
Answer: The stoichiometry N was 3.

Question: What about the stoichiometry N [2] of the same substance?
Answer: The stoichiometry N was 3.

Question: What does the source list for “bRSV F ATue51908 DS-Cav1 (domain or fragment)”?
Answer: stoichiometry N [3]: 3; stoichiometry N [4]: 3

Question: With “bRSV F DS2-v1 (391-2 sc9 DS-Cav1 Q98C Q361C) (domain or fragment)” as the substance, how does the stoichiometry N [5] read?
Answer: The stoichiometry N was 3.

Question: And the stoichiometry N [6]?
Answer: Its stoichiometry N is 3.

Question: For “bRSV F DS2-v33 (391-2 sc9-10 DS-Cav1 Q98C Q361C) (domain or fragment)”, which stoichiometry N [7] is on record?
Answer: Its stoichiometry N is 3.

Question: And the stoichiometry N [8]?
Answer: Its stoichiometry N is 3.

Question: How did the stoichiometry N [9] turn out when “bRSV F DS2-v35 (ATue51908 sc9-10 DS-Cav1 A149C Y458C) (domain or fragment)” was run?
Answer: Its stoichiometry N is 3.

Question: What about the stoichiometry N [10] of the same substance?
Answer: Its stoichiometry N is 3.

Question: For “bRSV F RB94 DS-Cav1 (domain or fragment)”, which stoichiometry N [11] is on record?
Answer: Its stoichiometry N is 3.

Question: And the stoichiometry N [12]?
Answer: The stoichiometry N was 3.
